The assay concerns the target T1, MBP-tagged full length human HSPC300 (human, UniProt Q8WUW1 1-75).
T1 sequence (looked up): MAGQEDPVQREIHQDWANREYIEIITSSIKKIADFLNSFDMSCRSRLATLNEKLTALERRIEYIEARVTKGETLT
Kind of assay: reconstitution and co-elution on anion exchange chromatography.

B1: MBP-tagged WAVE217: human WAVE1 (1-217)-(GGS)6-(485-559) (domain or fragment)
chain: MPLVKRNIDPRHLCHTALPRGIKNELECVTNISLANIIRQLSSLSKYAEDIFGELFNEAHSFSFRVNSLQERVDRLSVSVTQLDPKEEELSLQDITMRKAFRSSTIQDQQLFDRKTLPIPLQETYDVCEQPPPLNILTPYRDDGKEGLKFYTNPSYFFDLWKEKMLQDTEDKRKEKRKQKQKNLDRPHEPEKVPRAPHDRRREWQKLAQGPELAEDDGGSGGSGGSGGSGGSGGSKRHPSTLPVISDARSVLLEAIRKGIQLRKVEEQREQEAKHERIENDVATILSRRIAVEYSDSEDDSEFDEVDWLE
Regarding B1, the binding result is “binds”.

The values are drawn from PMC4110903 (Methods in enzymology, 2014).
